{"source": "paper PMC5653362", "about": "“Formation of the chaperonin complex studied by 2D NMR spectroscopy” (PLoS ONE, 2017)", "binders": {"B1": {"name": "Wild-type E. coli GroES, 15N-labeled form (native heptamer) (natural protein)", "chain": "MNIRPLHDRVIVKRKEVETKSAGGIVLTGSAAAKSTRGEVLAVGNGRILENGEVKPLDVKVGDIVIFNDGYGVKSEKIDNEEVLIMSESDILAIVEA", "modifications": "uniformly 15N-labeled", "notes": "GroES co-chaperonin of Escherichia coli, wild type; concentrations are of the heptamer; also called 15N-labeled GroES; P (protein); source: E. coli BL21(DE3), expression plasmid pETESwild, purified as described previously"}, "B2": {"name": "single-ring mutant (SR1) of GroEL (R452E, E461A, S463A and V464A) (natural protein, E. coli, UniProt P0A6F5 1-548, looked up)", "chain": "MAAKDVKFGNDARVKMLRGVNVLADAVKVTLGPKGRNVVLDKSFGAPTITKDGVSVAREIELEDKFENMGAQMVKEVASKANDAAGDGTTTATVLAQAIITEGLKAVAAGMNPMDLKRGIDKAVTAAVEELKALSVPCSDSKAIAQVGTISANSDETVGKLIAEAMDKVGKEGVITVEDGTGLQDELDVVEGMQFDRGYLSPYFINKPETGAVELESPFILLADKKISNIREMLPVLEAVAKAGKPLLIIAEDVEGEALATLVVNTMRGIVKVAAVKAPGFGDRRKAMLQDIATLTGGTVISEEIGMELEKATLEDLGQAKRVVINKDTTTIIDGVGEEAAIQGRVAQIRQQIEEATSDYDREKLQERVAKLAGGVAVIKVGAATEVEMKEKKARVEDALHATRAAVEEGVVAGGGVALIRVASKLADLRGQNEDQNVGIKVALRAMEAPLEQIVLNCGEAPAAVANTVKGGDGNYGYNAATEEYGNMIDMGILDPTKVTRSALQYAASVAGLMITTECMVTDLPKNDAADLGAAGGMGGMGGMGGMM", "notes": "GroEL chaperonin of Escherichia coli with four mutations at the contact sites between the two rings, forming a single heptameric ring; Non-labeled; heptameric single ring; concentrations are of the heptamer; The PDB entries hold the wild-type double-ring parent; also called L (ligand); heptameric SR1; source: expression plasmid constructed from pEL-WT; expressed and purified as described …"}}, "details_in_all_cases": "both partners purified", "key": {"[1]": {"molecular_target": "B2", "experiment": "NMR titration; 1H-15N HSQC of 21.4 uM 15N-labeled GroES with 0-42 uM SR1 (separate samples); 20°C; 3.0 mM ADP, 20 mM Tris-HCl, 100 mM KCl, 10 mM MgCl2, pH 7.5, 10% D2O; fit to single-step 1:1 binding (Eq 6)"}, "[2]": {"molecular_target": "B2", "experiment": "NMR titration; 1H-15N HSQC of 21.4 uM 15N-labeled GroES with 0-42 uM SR1 (separate samples); 30°C; 3.0 mM ADP, 20 mM Tris-HCl, 100 mM KCl, 10 mM MgCl2, pH 7.5, 10% D2O; fit to single-step 1:1 binding (Eq 6)"}, "[3]": {"molecular_target": "B2", "experiment": "NMR titration; 1H-15N HSQC of 21.4 uM 15N-labeled GroES with 0-42 uM SR1 (separate samples); 25°C; 3 mM ATP, 20 mM Tris-HCl, 100 mM KCl, 10 mM MgCl2, pH 7.5, 10% D2O; fit to single-step 1:1 binding (Eq 6)"}, "[4]": {"molecular_target": "B2", "experiment": "NMR titration; 1H-15N HSQC of 21.4 uM 15N-labeled GroES with 0-42 uM SR1 (separate samples); 25°C; 3.0 mM ADP, 20 mM Tris-HCl, 100 mM KCl, 10 mM MgCl2, pH 7.5, 10% D2O; fit to single-step 1:1 binding (Eq 6)"}, "[5]": {"molecular_target": "B1", "experiment": "NMR titration; van't Hoff plot of the Kb values from the NMR titrations at 20, 25 and 30°C; 3.0 mM ADP, 100 mM KCl, 10 mM MgCl2, pH 7.5"}}}
{"binder": "B1", "values": [{"measurement": "Ka", "setting": "[1]", "result": 141000, "unit": "M⁻¹"}, {"measurement": "Ka", "setting": "[2]", "result": 223000, "unit": "M⁻¹"}, {"measurement": "Ka", "setting": "[3]", "result": "2.35e+06", "unit": "M⁻¹"}, {"measurement": "Ka", "setting": "[4]", "result": 189000, "unit": "M⁻¹"}]}
{"binder": "B2", "values": [{"measurement": "dH", "setting": "[5]", "result": "8.39 ± 1.15", "unit": "kcal/mol"}]}
